We go through 1 substance from PMC7531860.

This test addresses CfaE, tip-localized minor adhesive subunit of CFA/I fimbriae (enterotoxigenic Escherichia coli) (UniProt P25734). Kind of test: […], fluorescence at 320 nm; […].

The substance “mtCfaA (CfaA variant with the triple residue substitution T112I/L114I/V116I on the G1 strand) (natural protein)” yielded a mid-point dissociation concentration of GdnCl of 0.966 M.
